Values joined by “and” are separate entries in the source; they are usually repeats but may differ in a detail not shown here. Equal entries are not always repeated.
Conditions: Helicobacter pylori (strain ATCC 700392 / 26695); pH 7.2; Thermal; CD; Tris-HCl 20 mM; transition: 2; reversible: yes; whole UniProt chain shown

B1: Arginase wild type, O25949 (protein)
chain: MILVGLEAELGASKRGTDKGVRRLREALSATHGDVIKGMQTITQERCVLYKEFRYAKNFEDYYLFCKENLIPCMKEVFEKKEFPLILSSEHANMFGIFQAFRSVHKDKKIGILYLDAHADIHTAYDSDSKHIHGMPLGMVLNRVRSGFNRMSESEEKAWQKLCSLGLEKGGLEIDPKCLVYFGVRSTEQSERDVIRELQIPLFSVDAIRENMQEVVQKTKESLKAVDIIYLSLDLDIMDGKLFTSTGVRENNGLSFDELKQLLGLLLESFKDRLKAVEVTEYNPTVSIKHNNEEEKQVLEILDLIINSCKIKDKKHSFARSY
With B1 the Tm was 70 °C and 68 °C.
